Experimental findings from IntAct's records for PubMed 32296183 are described below.

The chains are these.
B1: Very-long-chain enoyl-CoA reductase (Homo sapiens), Q9NZ01 (parent)
chain: MKHYEVEILDAKTREKLCFLDKVEPHATIAEIKNLFTKTHPQWYPARQSLRLDPKGKSLKDEDVLQKLPVGTTATLYFRDLGAQISWVTVFLTEYAGPLFIYLLFYFRVPFIYGHKYDFTSSRHTVVHLACICHSFHYIKRLLETLFVHRFSHGTMPLRNIFKNCTYYWGFAAWMAYYINHPLYTPPTYGAQQVKLALAIFVICQLGNFSIHMALRDLRPAGSKTRKIPYPTKNPFTWLFLLVSCPNYTYEVGSWIGFAIMTQCLPVALFSLVGFTQMTIWAKGKHRSYLKEFRDYPPLRMPIIPFLL
partner: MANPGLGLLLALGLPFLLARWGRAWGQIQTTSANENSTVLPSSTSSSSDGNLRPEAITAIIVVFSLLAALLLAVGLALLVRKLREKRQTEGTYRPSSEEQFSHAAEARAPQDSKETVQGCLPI
B2: Golgi SNAP receptor complex member 2 (Homo sapiens), O14653 (parent)
chain: MDPLFQQTHKQVHEIQSCMGRLETADKQSVHIVENEIQASIDQIFSRLERLEILSSKEPPNKRQNARLRVDQLKYDVQHLQTALRNFQHRRHAREQQERQREELLSRTFTTNDSDTTIPMDESLQFNSSLQKVHNGMDDLILDGHNILDGLRTQRLTLKGTQKKILDIANMLGLSNTVMRLIEKRAFQDKYFMIGGMLLTCVVMFLVVQYLT
partner: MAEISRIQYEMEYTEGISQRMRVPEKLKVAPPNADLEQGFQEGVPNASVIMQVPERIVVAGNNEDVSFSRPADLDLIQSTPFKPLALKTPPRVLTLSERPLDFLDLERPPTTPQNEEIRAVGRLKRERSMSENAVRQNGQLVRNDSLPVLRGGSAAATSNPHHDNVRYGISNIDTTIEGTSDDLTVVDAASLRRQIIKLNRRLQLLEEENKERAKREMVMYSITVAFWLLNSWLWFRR
B3: Catenin alpha-3 (Homo sapiens), Q9UI47-2 (parent)
chain: MSAETPITLNIDPQDLQVQTFTVEKLLEPLIIQVTTLVNCPQNPSSRKKGRSKRASVLLASVEEATWNLLDKGEKIAQEATVLKDELTASLEEVRKESEALKVSAERFTDDPCFLPKREAVVQAARALLAAVTRLLILADMIDVMCLLQHVSAFQRTFESLKNVANKSDLQKTYQKLGKELENLDYLAFKRQQDLKSPNQRDEIAGARASLKENSPLLHSICSACLEHSDVASLKASKDTVCEEIQNALNVISNASQGIQNMTTPPEPQAATLGSALDELENLIVLNPLTVTEEEIRPSLEKRLEAIISGAALLADSSCTRDLHRERIIAECNAIRQALQDLLSEYMNNAGKKERSNTLNIALDNMCKKTRDLRRQLRKAIIDHVSDSFLDTTVPLLVLIEAAKNGREKEIKEYAAIFHEHTSRLVEVANLACSMSTNEDGIKIVKIAANHLETLCPQIINAALALAARPKSQAVKNTMEMYKRTWENHIHVLTEAVDDITSIDDFLAVSGMFLFF
partner: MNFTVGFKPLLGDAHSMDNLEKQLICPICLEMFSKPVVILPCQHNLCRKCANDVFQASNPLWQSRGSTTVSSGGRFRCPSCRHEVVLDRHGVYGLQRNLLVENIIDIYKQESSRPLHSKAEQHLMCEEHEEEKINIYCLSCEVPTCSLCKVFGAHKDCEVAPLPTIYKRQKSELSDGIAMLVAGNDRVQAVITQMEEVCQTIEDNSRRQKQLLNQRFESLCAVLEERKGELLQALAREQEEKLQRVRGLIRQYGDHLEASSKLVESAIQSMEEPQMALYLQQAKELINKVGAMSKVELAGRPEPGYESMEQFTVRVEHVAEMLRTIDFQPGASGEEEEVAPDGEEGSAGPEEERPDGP
B4: Very-long-chain enoyl-CoA reductase (Homo sapiens), Q9NZ01 (parent)
chain: B1 chain
partner: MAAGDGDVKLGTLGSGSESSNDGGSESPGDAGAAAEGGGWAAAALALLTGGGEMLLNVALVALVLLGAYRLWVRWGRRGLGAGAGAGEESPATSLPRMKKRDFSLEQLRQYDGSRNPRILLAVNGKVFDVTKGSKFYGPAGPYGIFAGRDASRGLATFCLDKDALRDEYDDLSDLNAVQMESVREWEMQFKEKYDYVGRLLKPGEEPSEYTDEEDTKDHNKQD
B5: Succinate--CoA ligase [ADP-forming] subunit beta, mitochondrial (Homo sapiens), Q9P2R7 (parent)
chain: MAASMFYGRLVAVATLRNHRPRTAQRAAAQVLGSSGLFNNHGLQVQQQQQRNLSLHEYMSMELLQEAGVSVPKGYVAKSPDEAYAIAKKLGSKDVVIKAQVLAGGRGKGTFESGLKGGVKIVFSPEEAKAVSSQMIGKKLFTKQTGEKGRICNQVLVCERKYPRREYYFAITMERSFQGPVLIGSSHGGVNIEDVAAESPEAIIKEPIDIEEGIKKEQALQLAQKMGFPPNIVESAAENMVKLYSLFLKYDATMIEINPMVEDSDGAVLCMDAKINFDSNSAYRQKKIFDLQDWTQEDERDKDAAKANLNYIGLDGNIGCLVNGAGLAMATMDIIKLHGGTPANFLDVGGGATVHQVTEAFKLITSDKKVLAILVNIFGGIMRCDVIAQGIVMAVKDLEIKIPVVVRLQGTRVDDAKALIADSGLKILACDDLDEAARMVVKLSEIVTLAKQAHVDVKFQLPI
partner: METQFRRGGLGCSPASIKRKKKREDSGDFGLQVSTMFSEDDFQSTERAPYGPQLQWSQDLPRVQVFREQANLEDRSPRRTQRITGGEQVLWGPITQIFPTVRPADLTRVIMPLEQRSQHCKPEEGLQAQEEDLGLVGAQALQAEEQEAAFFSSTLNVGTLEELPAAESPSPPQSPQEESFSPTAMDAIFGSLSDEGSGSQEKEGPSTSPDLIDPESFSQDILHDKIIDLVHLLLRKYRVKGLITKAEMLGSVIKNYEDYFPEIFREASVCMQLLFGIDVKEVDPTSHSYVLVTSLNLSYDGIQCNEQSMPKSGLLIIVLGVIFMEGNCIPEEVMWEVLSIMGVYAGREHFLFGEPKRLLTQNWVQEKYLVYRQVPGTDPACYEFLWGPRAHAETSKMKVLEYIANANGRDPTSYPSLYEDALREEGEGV
B6: Golgi SNAP receptor complex member 2 (Homo sapiens), O14653 (parent)
chain: B2 chain
partner: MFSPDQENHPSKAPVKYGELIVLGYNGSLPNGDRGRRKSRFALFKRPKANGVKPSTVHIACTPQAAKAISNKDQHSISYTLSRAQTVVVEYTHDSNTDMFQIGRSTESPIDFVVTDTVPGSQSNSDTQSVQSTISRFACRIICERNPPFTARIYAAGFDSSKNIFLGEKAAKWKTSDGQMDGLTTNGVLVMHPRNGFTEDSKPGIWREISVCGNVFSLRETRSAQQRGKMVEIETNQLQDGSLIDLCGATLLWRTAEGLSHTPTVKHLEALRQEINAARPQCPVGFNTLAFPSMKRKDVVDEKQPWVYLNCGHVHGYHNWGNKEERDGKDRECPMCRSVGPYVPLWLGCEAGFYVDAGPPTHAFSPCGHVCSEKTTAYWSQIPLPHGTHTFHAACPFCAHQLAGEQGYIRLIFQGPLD
B7: Golgi SNAP receptor complex member 2 (Homo sapiens), O14653 (parent)
chain: B2 chain
partner: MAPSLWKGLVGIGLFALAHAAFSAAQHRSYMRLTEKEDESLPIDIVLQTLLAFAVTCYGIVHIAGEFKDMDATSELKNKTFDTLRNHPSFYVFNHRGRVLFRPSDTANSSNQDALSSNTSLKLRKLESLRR
B8: Catenin alpha-3 (Homo sapiens), Q9UI47-2 (parent)
chain: B3 chain
partner: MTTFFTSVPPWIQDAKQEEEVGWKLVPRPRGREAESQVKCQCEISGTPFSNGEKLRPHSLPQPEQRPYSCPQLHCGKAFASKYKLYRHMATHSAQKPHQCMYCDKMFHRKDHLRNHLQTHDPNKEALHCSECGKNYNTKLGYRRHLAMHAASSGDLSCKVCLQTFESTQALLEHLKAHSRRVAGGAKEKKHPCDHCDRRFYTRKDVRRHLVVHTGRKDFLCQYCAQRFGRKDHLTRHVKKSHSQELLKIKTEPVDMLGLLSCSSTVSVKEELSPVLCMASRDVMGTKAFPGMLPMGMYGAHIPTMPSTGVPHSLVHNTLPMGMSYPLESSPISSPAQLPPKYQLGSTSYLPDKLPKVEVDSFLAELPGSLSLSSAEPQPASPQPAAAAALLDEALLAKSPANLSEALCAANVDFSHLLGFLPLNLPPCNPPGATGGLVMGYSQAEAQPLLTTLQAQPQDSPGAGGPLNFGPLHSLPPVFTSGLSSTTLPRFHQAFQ
B9: Very-long-chain enoyl-CoA reductase (Homo sapiens), Q9NZ01 (parent)
chain: B1 chain
partner: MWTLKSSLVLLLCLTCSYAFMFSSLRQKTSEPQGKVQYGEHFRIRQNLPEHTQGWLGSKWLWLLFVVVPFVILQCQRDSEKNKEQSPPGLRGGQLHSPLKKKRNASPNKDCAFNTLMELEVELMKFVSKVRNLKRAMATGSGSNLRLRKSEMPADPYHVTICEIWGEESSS

In one assay the parent is B1. As to conditions: with CRB3, Q9BUF7-2.
As to P182L, the “effect of a mutation on the interaction” value is “disrupting interaction strength”.

A further assay covers variants of B2. Particulars: with MFF.
On to G144W, for which the “effect of a mutation on the interaction” value is reported as “disrupting interaction strength”.

The next assay covers variants of B3. Particulars: with tri54_human TRIM54, Q9BYV2.
Take V94D: the “effect of a mutation on the interaction” value was “disrupting interaction strength”.

In the next assay the parent is B4. Particulars: with pgrc2_human PGRMC2, O15173.
As to P182L, the “effect of a mutation on the interaction” value is “with no effect”.

In a further assay the parent is B5. As to conditions: with magab_human MAGEA11, P43364.
On to G118R, for which the “effect of a mutation on the interaction” value is “disrupting interaction strength”.

As to D251N, the “effect of a mutation on the interaction” value is reported as “disrupting interaction strength”.

A further assay covers variants of B6. As to conditions: with peli1_human PELI1, Q96FA3.
Regarding G144W, the “effect of a mutation on the interaction” value is listed as “disrupting interaction strength”.

In a further assay the parent is B7. As to conditions: with emc5_human MMGT1, Q8N4V1.
As to G144W, the “effect of a mutation on the interaction” value is given as “with no effect”.

A further assay covers variants of B8. As to conditions: with plal2_human PLAGL2, Q9UPG8.
V94D: the “effect of a mutation on the interaction” value was “disrupting interaction strength”.

Variants of B9 are the subject of a further assay. Particulars: with FAM209A.
P182L: the “effect of a mutation on the interaction” value is given as “disrupting interaction strength”.
